To fix the notation:
B1: anti-CD277 monoclonal antibody mAb1 (antibody, V domains shown)
VH: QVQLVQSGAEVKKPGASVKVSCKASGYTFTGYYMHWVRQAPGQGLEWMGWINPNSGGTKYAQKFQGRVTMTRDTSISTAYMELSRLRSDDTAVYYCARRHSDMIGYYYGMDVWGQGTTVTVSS
VL: DIQMTQSPSSVSASVGDRVTITCRASQGISSWLAWYQQKPGKAPKLLIYAASSLQSGVPSRFSGSGSGTDFTLTISSLQPEDFATYYCQQATDFPPTFGGGTKVEIKR
B2: anti-CD277 antibody mAb9 (antibody, V domains shown)
VH: QVQLVQSGAEVKKPGASVKVSCKASGYTFNGYYIHWVRQAPGQGLEWMGWINSNSGGTKYAQKFQGRVTMTRDTSISTAYMELSRLRSDDTAVYYCARRHSDMIGYYYGMDVWGQGTTVTVSS
VL: DIQLTQSPSSLSASVGDRVTITCRASQSISSYLNWYQQKPGKVPKLLIYAASTLQSGVPSRFSGSGSGTDFTLTISSLQPEDFATYSCQQTNSFPPTFGQGTKVEIKR
B3: anti-CD277 antibody mAb2 (antibody, human IgG1, kappa, N297A, V domains shown)
VH: B2 VH with N30S, G31N, S53A
VL: B2 VL with L4M, S30D, S31R, V43A, T53R, S87Y, T91A, K103R, V104L
B4: anti-CD277 antibody mAb11 (antibody, human IgG1, kappa, N297A, V domains shown)
VH: B2 VH with N30S, G31N, S53A
VL: B2 VL with L4M, V43A, T53S, S87Y, T91A, S93T, K103R, V104L
B5: anti-CD277 antibody mAb10 (antibody, human IgG1, kappa, N297A, V domains shown)
VH: B2 VH with N30T, G31N, I34M, S53V, G57V
VL: B2 VL with L4M, V43A, T53S, S87Y, T91A, S93T, K103R, V104L
B6: anti-CD277 antibody mAb3 (antibody, human IgG1, kappa, N297A, V domains shown)
VH: B2 VH
VL: B1 VL
B7: anti-CD277 antibody mAb7 (antibody, human IgG1, kappa, N297A, V domains shown)
VH: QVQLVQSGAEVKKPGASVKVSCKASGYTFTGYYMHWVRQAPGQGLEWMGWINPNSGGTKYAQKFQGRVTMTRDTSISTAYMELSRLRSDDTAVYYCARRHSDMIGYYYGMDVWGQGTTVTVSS
VL: B1 VL with V11L, G28D, S31V, W32Y, A34N, A50T, T92N, D93S, E105D
B8: anti-CD277 antibody mAb8 (antibody, human IgG1, kappa, N297A, V domains shown)
VH: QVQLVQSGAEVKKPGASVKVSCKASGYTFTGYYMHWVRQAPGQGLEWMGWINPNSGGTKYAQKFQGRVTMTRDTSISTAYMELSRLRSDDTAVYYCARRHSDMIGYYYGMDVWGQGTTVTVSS
VL: B2 VL with L4M, S30D, S31R, V43A, T53R, S87Y, T91A, K103R, V104L
B9: anti-CD277 antibody mAb5 (antibody, human IgG1, kappa, N297A, V domains shown)
VH: B2 VH with N30S, G31N, S53A
VL: B1 VL
B10: anti-CD277 antibody mAb6 (antibody, human IgG1, kappa, N297A, V domains shown)
VH: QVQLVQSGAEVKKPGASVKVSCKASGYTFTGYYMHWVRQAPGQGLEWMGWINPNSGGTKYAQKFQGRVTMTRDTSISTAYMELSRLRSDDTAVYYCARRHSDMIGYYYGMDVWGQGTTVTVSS
VL: B1 VL with V11L, G28S, S31L, W32F, A34N, A50T, T92N, D93S, E105D
B11: anti-CD277 antibody mAb4 (antibody, human IgG1, kappa, N297A, V domains shown)
VH: B2 VH with N30T, G31N, I34M, S53V, G57V
VL: B1 VL

Changes are numbered by the printed parent chain.

Chain of human BTN3A1 ectopically expressed on K32 cells (O00481 30-513 limits assumed): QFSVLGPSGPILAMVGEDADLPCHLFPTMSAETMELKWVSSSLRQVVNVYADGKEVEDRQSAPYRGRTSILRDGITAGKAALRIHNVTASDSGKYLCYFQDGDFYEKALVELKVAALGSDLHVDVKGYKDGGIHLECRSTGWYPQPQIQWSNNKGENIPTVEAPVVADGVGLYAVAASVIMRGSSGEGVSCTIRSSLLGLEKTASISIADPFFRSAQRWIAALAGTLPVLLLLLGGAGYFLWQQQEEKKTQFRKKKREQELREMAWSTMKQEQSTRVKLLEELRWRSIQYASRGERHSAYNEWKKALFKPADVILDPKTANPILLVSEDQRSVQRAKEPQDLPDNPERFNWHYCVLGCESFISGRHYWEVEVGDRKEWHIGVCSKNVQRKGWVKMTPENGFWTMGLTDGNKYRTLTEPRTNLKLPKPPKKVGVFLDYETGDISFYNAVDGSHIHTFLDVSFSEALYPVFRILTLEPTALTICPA
T1 sequence (O00481 30-254 limits assumed): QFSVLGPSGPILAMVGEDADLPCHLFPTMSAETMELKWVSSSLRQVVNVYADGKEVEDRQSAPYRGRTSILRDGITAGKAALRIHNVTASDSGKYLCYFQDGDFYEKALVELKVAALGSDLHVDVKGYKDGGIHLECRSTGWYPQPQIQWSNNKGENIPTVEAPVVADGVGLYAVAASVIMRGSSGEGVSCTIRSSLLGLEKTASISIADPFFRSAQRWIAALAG

One experiment has as its target human BTN3A1 ectopically expressed on K32 cells (human, UniProt O00481 30-513). Kind of experiment: cell-based or functional assay.
For B1, the “IFN-γ release by purified CD4+ T cells stimulated with BTN-K32 cells” value was no less than 2 fold, the “IFN-γ release by purified CD8+ T cells stimulated with BTN-K32 cells” value is roughly 1300 fold, the “proliferation of gated CD4+ T cells within total PBMCs co-cultured with anti-CD3/anti-CD28 coated BTN-K32 cells” value was no less than 1.5 fold and the “proliferation of gated CD8+ T cells within total PBMCs co-cultured with anti-CD3/anti-CD28 coated BTN-K32 cells” value is no less than 1.5 fold. Also, the “proliferation of purified CD4+ T cells stimulated with BTN-K32 cells” value was no less than 1.5 fold and the “proliferation of purified CD8+ T cells stimulated with BTN-K32 cells” value is no less than 2 fold.

A further experiment has as its target T1, human CD277 (human, UniProt O00481 30-254, limits assumed).
T1 construct: The SPR method text speaks of 'purified recombinant his tagged human CD137', apparently an error for CD277; also called BTN3A1; human CD277 polypeptides
Kind of experiment: SPRi (Carterra MX96), antibody printed on chip, his-tagged antigen injected, 1:1 fit. As for the experimental part: The resulting anti-CD277 antibodies from different selection rounds were plotted on kd/kₐ double log plots. Apparent association and dissociation kinetic rate constants (kₐ and kd values) were determined on an SPRi reader (MX96, Carterra) in a running buffer of PBS-C 0.01%. […] antibodies were covalently printed on a Carboxymethyldextran hydrogel 50 L chip (Xantec bioanalytics) on a CFM (Carterra). Freshly mixed activating reagents ([…] 0.4 M EDC and […] 0.1 M sulfo-NHS in H2O) were used to activate the surface of the SPR substrate for 7 minutes. Antibodies at 10 mg/ml in acetic acid buffer pH 4.5 were used for printing for 15 minutes. The printed chip was then quenched on SPRi reader (MX96, Carterra) with 1 M ethanolamine for 15 minutes. For kinetics analysis, purified recombinant his tagged human […] (0, 2.05, 5.12, 12.8, 32, 80, 200, 500 nM) was injected sequentially. For each concentration, there was 5 minutes of association followed by 10 minutes of dissociation. Data were processed and analyzed in SPR Inspection Tool and Scrubber softwares. The kinetic data were referenced with the interstitial reference spots and double-referenced to a buffer cycle, and then fit globally to a 1:1 binding model to determine their apparent association and dissociation kinetic rate constants (kₐ and kd values). The ratio kd/kₐ was used to derive the KD value of each antigen/mAb interaction, i.e. KD=kd/kₐ.
In the case of B2, the Kd (in general, the constant that tells how readily two partners part at equilibrium) is 6.82 nM; the koff (in general, a measure of how fast the partners let go of each other) is 9.71e-05 s⁻¹; the kon – broadly, the second-order rate constant of association – was found to be 14200 M⁻¹ s⁻¹.

B3 registered a Kd of 2.68 nM, a koff of 4.89e-05 s⁻¹ and a kon of 18300 M⁻¹ s⁻¹.

For B1, the Kd came to 16.7 nM, the koff was found to be 0.000384 s⁻¹ and the kon worked out at 23000 M⁻¹ s⁻¹.

B4 came in with a Kd of 5.13 nM, a koff of 9.36e-05 s⁻¹ and a kon of 18200 M⁻¹ s⁻¹.

In turn, B5 yielded a Kd of 4.69 nM, a koff of 8.03e-05 s⁻¹ and a kon of 17100 M⁻¹ s⁻¹.

On to B6, for which the Kd was 6.71 nM, the koff came out at 0.000121 s⁻¹ and the kon amounted to 18100 M⁻¹ s⁻¹.

B7 came in with a Kd of 6.69 nM, a koff of 0.000159 s⁻¹ and a kon of 23700 M⁻¹ s⁻¹.

B8 showed a Kd of 6.05 nM, a koff of 0.000138 s⁻¹ and a kon of 22800 M⁻¹ s⁻¹.

Turning to B9, the Kd was 12.9 nM, the koff stood at 0.00025 s⁻¹ and the kon was found to be 19300 M⁻¹ s⁻¹.

In turn, B10 gave a Kd of 4.37 nM, a koff of 0.000118 s⁻¹ and a kon of 27100 M⁻¹ s⁻¹.

B11 gave a Kd of 10.1 nM, a koff of 0.00019 s⁻¹ and a kon of 18800 M⁻¹ s⁻¹.

For the origin of these results see patent publication US20210309746A1 (COMPASS THERAPEUTICS, published 2021).
